Results published in FireProtDB (doi:10.1021/bi050502v).

B1: Apolipophorin-3b, P10762 (parent)
chain: MNTLLAVLMLAVAAQARPDAAGHVNIAEAVQQLNHTIVNAAHELHETLGLPTPDEALNLLTEQANAFKTKIAEVTTSLKQEAEKHQGSVAEQLNRFARNLNNSIHDAATSAQPADQLNSLQSALTNVGHQWQTSQPRPSVAQEAWAPVQSALQEAAEKTKEAAANLQNSIQSAVQKPAN

Variants of: B1
Conditions: Locusta migratoria, pH 7.4, CD, Na2HPO4 KH2PO4 10 mM 2 mM, NaCl 127 mM, reversible: yes, structure 1LS4, whole UniProt chain shown; for ddG of mutation (higher = less stable) / denaturant midpoint (higher = more stable) / unfolding free energy: 25 °C, GdnHCl; for Tm / change of melting temperature, mutant - wild type (higher = more stable): Thermal

Row | Variant | ddG of mutation (higher = less stable) [kcal/mol] | denaturant midpoint (higher = more stable) [M] | unfolding free energy [kcal/mol] | Tm [°C] | change of melting temperature, mutant - wild type (higher = more stable) [°C]
1 | MNTLLAVLMLAVAAQARPDAAGHVNIAEAVQQKNHTIVNAAHELHETLGLPTPDEALNLLTEQANAFKTKIAEVTTSLKQEAEKHQGSVAEQLNRFARNLNNSIHDAATSAQPADQLNSLQSALTNVGHQWQTSQPRPSVAQEAWAPVQSALQEAAEKTKEAAANLQNSIQSAVQKPAN [L33K] | 1.36 | 0.2 | 0.69 | 37 | -16
2 | MNTLLAVLMLAVAAQARPDAAGHVNIAEAVQQLNHTIVNAAHELHEALGLPTPDEALNLLTEQANAFKTKIAEVTTSLKQEAEKHQGSVAEQLNRFARNLNNSIHDAATSAQPADQLNSLQSALTNVGHQWQTSQPRPSVAQEAWAPVQSALQEAAEKTKEAAANLQNSIQSAVQKPAN [T47A] | -0.6 | 0.62 | 2.65 | 57 | 4
3 | MNTLLAVLMLAVAAQARPDAAGHVNIAEAVQQLNHTIVNAAHELHEALGLPTPDEALNLLTEQANAFKTKIAEVTTSLKQEAEKHQGSVAEQLNRFARNLNNSIHDAATSAQPADQLNSLQSALTNVGHQWQTSQPRPSVAQEAWAPVQSALQEAAEKAKEAAANLQNSIQSAVQKPAN [T47A T159A] | 1.06 | 0.37 | 0.99 |  | 
4 | MNTLLAVLMLAVAAQARPDAAGHVNIAEAVQQLNHTIVNAAHELHETLGLPTPDEALNLLTEQANAFKTKIAEVTTSLKQEAEKHQGSVAEQLNRFARNLNNSIHDAATSAQPADQLNSLQSALTNVGHQWQTSQPRPSVAQEAWAPVQSALQEKAEKTKEAAANLQNSIQSAVQKPAN [A155K] | 1.69 | 0.16 | 0.36 | 38 | -15
5 | MNTLLAVLMLAVAAQARPDAAGHVNIAEAVQQLNHTIVNAAHELHETLGLPTPDEALNLLTEQANAFKTKIAEVTTSLKQEAEKHQGSVAEQLNRFARNLNNSIHDAATSAQPADQLNSLQSALTNVGHQWQTSQPRPSVAQEAWAPVQSALQEAAEKAKEAAANLQNSIQSAVQKPAN [T159A] | 1.32 | 0.28 | 0.73 | 44 | -9
